Laboratory results taken from paper PMC5707411 (Nature Communications, 2017).

How the values were obtained:
[1] = biological target: full-length RSV F (TM, residues 1–574) from strain A2 with the DS-Cav1 prefusion-stabilizing mutations (Human respiratory syncytial virus A, …, UniProt P03420, stabilised); test: cell-based or functional assay
[2] = biological target: T1, StrepTagII and 6xHis-tagged RSV pre-F (DS-Cav1) in the 9320 RSV F background (Human respiratory syncytial virus B, …, UniProt Q6V2E7, stabilised); test: SPR; 6xHis-tagged pre-F (DS-Cav1) captured on an NTA sensor chip to ~150 RU, Biacore X100; Fab injected in 3-fold dilutions (5C4:pre-F 9320, 0.460–3000 nM); double-reference subtracted, 1:1 binding model; details: both partners purified
T1 construct: respiratory syncytial virus fusion glycoprotein, subtype B strain 9320, stabilised in the prefusion conformation by the DS-Cav1 mutations; also called pre-F 9320; pre-F derived from subtype B strain 9320; source: Freestyle 293-F, transfected, expressed with kifunensine (5 µM); purified from supernatant (Strep-Tactin)

[3] = biological target: T2, RSV F (+) FdTHS based on strain A2 (wild-type A2 RSV F ectodomain fused to a C-terminal trimerization motif) (Human respiratory syncytial virus A, …, fully glycosylated (N-linked) | fully glycosylated (N-linked)); test: crystal structure; 5C4 Fab co-expressed with RSV F (+) FdTHS in Expi293, complex purified (Ni-NTA, Strep-Tactin, thrombin, Superose 6); crystal from 0.2 M ammonium acetate, 0.1 M Bis-Tris pH 6.5, 25% PEG 3350; 3.4 Å; details: both partners purified
T2 construct: F2 subunit (N-terminal fragment of F0 made by furin-like proteases) of the respiratory syncytial virus fusion glycoprotein, strain A2; ectodomain part of the F1 subunit (C-terminal fragment of F0 made by furin-like proteases) of the respiratory syncytial virus fusion glycoprotein, strain A2; Trimer of F2-F1 heterodimers; pep27 is removed by furin-like proteases; also called pre-F; F glycoprotein; …

[4] = biological target: T3, full-length RSV F (TM, residues 1–574) from strain A2 with the DS-Cav1 prefusion-stabilizing mutations (Human respiratory syncytial virus A, …, UniProt P03420, stabilised); test: flow cytometry on cells; Expi293 cells 48 h after transfection with full-length DS-Cav1 RSV F variants, stained with IgG 1 h at 4 °C (D25 Alexa Fluor 488-conjugated; 5C4 detected with FITC goat anti-mouse), fixed; fractional binding relative to motavizumab; details: one partner purified
T3 construct: signal peptide in the construct; In cells F0 is cut by furin-like proteases into F2 and F1 (pep27 removed) and forms trimers; also called RSV A2 pre-F; wild-type A2; source: Expi293, transiently transfected (pVRC8400), on the cell surface

B1: 5C4 IgG (antibody, V domains shown)
VH: EVQLQQSGAELVKPGASVKLSCTASGFNIKDTFFHWVKQRPEQGLEWIGRIDPADGHTKYDPKFQGKATITADTSSNTAFLQLSSLTSVDTAVYYCATTITAVVPTPYNAMDYWGQGTSVTVSS
VL: DIVLTQSPASLAVSLGQRTTISCRASESVDSFDNSFIHWYQQKPGQPPKLLIFLASSLESGVPARFSGSGSRTDFTLTIDPVEADDAATYYCQQSNEDPFTFGSGTKLEIK
B1 was tested, and the “EC50 of 5C4 neutralisation of mKate-RSV A2 wild-type virus on HEp-2 cells (viral F without DS-Cav1; antibody format not given)” value [1] was 4 ng/mL.

B2: 5C4 Fab (Fab, V domains shown)
VH: B1 VH
VL: B1 VL
notes: 5C4 Fab heavy chain (antibody elicited in mice); 5C4 Fab light chain (murine kappa, Vk3-10); source: Expi293, transiently co-transfected heavy and light chain plasmids; purified from supernatant (CaptureSelect LC-kappa (murine)); for the complex co-expressed with RSV F
With B2 the binding result [2] was “binds” and the “stoichiometry N” value [3] was 3.

B3: D25 IgG (antibody, V domains shown)
VH: QVQLVQSGAEVKKPGSSVMVSCQASGGPLRNYIINWLRQAPGQGPEWMGGIIPVLGTVHYAPKFQGRVTITADESTDTAYIHLISLRSEDTAMYYCATETALVVSTTYLPHYFDNWGQGTLVTVSS
VL: DIQMTQSPSSLSAAVGDRVTITCQASQDIVNYLNWYQQKPGKAPKLLIYVASNLETGVPSRFSGSGSGTDFSLTISSLQPEDVATYYCQQYDNLPLTFGGGTKVEIK
notes: D25 heavy chain (human antibody); the variable domain and CH1 are in the D25 Fab of the cited entry PDB 4JHW; rest of the IgG heavy chain not described; D25 light chain (human antibody); in the D25 Fab of the cited entry PDB 4JHW; also called mAb D25; Alexa Fluor 488-conjugated D25 IgG; copies: 2 + 2
B3: binds [4].
